Experimental data as given in doi:10.1101/738153.

Columns and labels:
[1] = biological target: TbBILBO1 N-terminal domain (TbBILBO1-NTD), wild type, residues 1-120 (Trypanosoma brucei); assay: ITC
[2] = biological target: TbBILBO1-NTD Y64A (Trypanosoma brucei); assay: ITC

## TbFPC4 C-terminal domain (TbFPC4-CTD), residues 357-404 (domain or fragment)
[1]
  Kd: 5 µM
[2]
  fold reduction of binding affinity against wild type: 2.5 fold
